Data set [1] addresses T1, B52 (SRp55) full length (Drosophila melanogaster, UniProt P26686 P26686:1-350). The data set can be described thus: EMSA; antisense does not bind. Particulars: tags: baculovirus/Sf9 expressed, SR protein purification, label: 32P-UTP. The method, then:
(§1) All binding assays were performed in 20 μl volume in 1× binding buffer described above. A typical binding assay using labeled RNA contains about 20 finole of ³²P-labeled RNA probe and differing amounts (1-10 pmole) of B52 protein. A typical binding assay using the truncated versions of B52 contains 1 μl of the ³⁵S-labeled translation reaction mixture with 2 pmoles of unlabeled RNA transcript (the final concentration of RNAs in this reaction was 100 nM and concentration of the labeled B52 proteins was much lower). The reactions were allowed to equilibrate for 15-20 minutes at ambient temperature before being subjected to filter binding, gel shift, or UV crosslinking.
(§2) To determine the sequence/structure requirements for binding by B52, deletion and substitution mutations, and antisense constructs of BBS were designed in light of the shared sequence motif and predicted secondary structures (FIG. 4). These short RNA transcripts were produced by in vitro transcription of synthetic templates, and their affinity to B52 was assayed by band shift.
For orientation: Mobility shift assays separate free from complexed probe on a gel.

In the next data set the target is B52 RRM1+RRM2 (R12) (Drosophila melanogaster, UniProt P26686 P26686:4-188). The data set can be described thus: EMSA; affinity comparable to baculovirus B52; also UV-crosslinked. Particulars: tags: 35S-Met, reticulocyte lysate; hairpin. The method, then:
(§3) Gel shifts were performed at 4° C. The binding reaction mixtures were set at 4° C. for 5-10 minutes before being loaded onto a 2.5% agarose gel in ¼ TBE buffer. The avidity of the pentavalent RNA aptamer to B52 was examined on longer agarose gels (25 cm) to improve the resolution of RNA bands. The affinity of the RNA for the in vitro translated polypeptides was estimated by comparing the intensity of the bands representing the complex on the agarose gel and that of the corresponding polypeptides run on SDS-PAGE. To crosslink proteins to RNA, the binding reaction mixtures were irradiated for 20 minutes from 5 cm directly above by inverting a short-wavelength UV trans-illuminator. The products of crosslinking were analyzed using standard SDS-PAGE.
(§4) BBS RNAs were selected for their ability to bind full length B52 protein. It is possible that B52 binds RNA through either one or the other RRMs, the SR domain, or a combination of these domains. To identify the specific RNA-binding site on B52, a set of ³⁵S-methionine labeled B52 deletion constructs were prepared by in vitro translation and then tested for their ability to bind the selected BBS #8 RNA in two different assays (FIG. 6A). […]
(§5) To confirm the requirements of both RRMs for binding, these binding reactions were repeated and the reaction mixtures were subjected to UV irradiation. The UV-crosslinked species were then analyzed on SDS-PAGE. […]

The target of the next data set is B52 full length (F) (Drosophila melanogaster, UniProt P26686 P26686:1-350). The data set can be described thus: EMSA; 100 nM RNA; affinity comparable to baculovirus B52. As to conditions: tags: 35S-Met, reticulocyte lysate; hairpin. Here is the method:
as §1
(§6) BBS RNAs were selected for their ability to bind full length B52 protein. It is possible that B52 binds RNA through either one or the other RRMs, the SR domain, or a combination of these domains. To identify the specific RNA-binding site on B52, a set of ³⁵S-methionine labeled B52 deletion constructs were prepared by in vitro translation and then tested for their ability to bind the selected BBS #8 RNA in two different assays (FIG. 6A). These polypeptides also serve as a second source of target proteins in binding assays to confirm the specificity of binding to the selected BBS RNA.

For another data set, the target named is B52 RRM2+SR domain (R2S) (Drosophila melanogaster, UniProt P26686 P26686:115-350). The experiment in a line: EMSA; 100 nM RNA, no discrete band. Particulars: tags: 35S-Met, reticulocyte lysate; hairpin. Here is the method:
as §3, §6

The next data set has as its target B52 SR domain (S) (Drosophila melanogaster, UniProt P26686 P26686:189-350). The data set can be described thus: EMSA; 100 nM RNA, no discrete band. As to conditions: tags: 35S-Met, reticulocyte lysate; hairpin. Here is the method:
as §3, §6

In a further data set the target is B52 RRM1 (R1) (Drosophila melanogaster, UniProt P26686 P26686:4-74). The experiment in a line: EMSA; no band; not UV-crosslinked; not complemented by R2S in trans. Particulars: tags: 35S-Met, reticulocyte lysate; hairpin. The method, then: as §3, §4, §5
For another data set, the target named is T2, HSF (heat shock factor) (UniProt P22813 P22813:1-691).
T2 sequence: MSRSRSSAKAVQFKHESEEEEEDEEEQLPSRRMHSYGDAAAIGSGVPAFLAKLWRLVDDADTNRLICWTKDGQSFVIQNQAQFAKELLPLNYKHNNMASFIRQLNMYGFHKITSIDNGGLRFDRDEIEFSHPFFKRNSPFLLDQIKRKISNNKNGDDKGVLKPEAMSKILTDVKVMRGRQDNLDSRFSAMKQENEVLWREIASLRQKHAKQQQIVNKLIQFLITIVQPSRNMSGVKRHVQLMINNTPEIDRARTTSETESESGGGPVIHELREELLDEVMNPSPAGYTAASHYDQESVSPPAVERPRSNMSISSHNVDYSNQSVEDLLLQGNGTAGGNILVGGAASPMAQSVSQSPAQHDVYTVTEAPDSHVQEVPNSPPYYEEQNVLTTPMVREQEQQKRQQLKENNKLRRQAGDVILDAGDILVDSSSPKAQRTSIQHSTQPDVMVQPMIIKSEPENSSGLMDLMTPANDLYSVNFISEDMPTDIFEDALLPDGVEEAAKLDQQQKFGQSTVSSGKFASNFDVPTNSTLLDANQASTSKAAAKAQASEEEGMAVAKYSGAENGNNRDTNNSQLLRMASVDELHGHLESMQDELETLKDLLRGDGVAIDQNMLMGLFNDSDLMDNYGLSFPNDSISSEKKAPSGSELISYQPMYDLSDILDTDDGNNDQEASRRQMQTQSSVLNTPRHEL
The data set can be described thus: no measurable affinity for BBS RNAs; individual BBS and method not specified. As to conditions: hairpin.

The target in another data set is T3, RBP1 (SR protein) (UniProt Q02427 Q02427:1-144).
T3 sequence: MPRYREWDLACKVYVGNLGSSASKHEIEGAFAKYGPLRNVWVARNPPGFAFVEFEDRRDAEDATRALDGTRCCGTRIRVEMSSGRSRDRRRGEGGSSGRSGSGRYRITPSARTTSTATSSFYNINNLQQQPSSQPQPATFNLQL
The description is as above. As to conditions: hairpin.

Data set [2] addresses T1, B52 (SRp55) full length. The data set can be described thus: EMSA; strong binder; both conserved flanking Gs. As to conditions: tags: baculovirus/Sf9 expressed, SR protein purification; label: 32P-UTP; hairpin. Here is the method: as §1, §2
The target in data set [3] is T1, B52 (SRp55) full length. The data set can be described thus: EMSA; full binding activity. As to conditions: tags: baculovirus/Sf9 expressed, SR protein purification; label: 32P-UTP; hairpin with unfolded 3' tail. The method, then: as §1, §2
Data set [4] has as its target T1, B52 (SRp55) full length. The data set can be described thus: EMSA; pentavalent vs monovalent; single-unit ribozyme-cleaved transcript tested in FIG. 9A. Particulars: tags: baculovirus/Sf9 expressed, SR protein purification; multivalent, five BBS hairpins closed by S35 stem. The method, then:
as §3
Fragment C, which contains no binding site, served as an internal loading control in a band shift assay to assess the avidity of the pentavalent construct. During the transcription reaction, the extent of self-cleavage reached about 90% (FIG. 9A, Lane 1). […] The multivalent RNA aptamers bound B52 10-fold more avidly than the individual monovalent RNA aptamers, as shown here compared to the strong-binding primary aptamer BBS #14 (Lanes 2-4 vs. Lanes 6-8, FIG. 9A). […]

In data set [5] the target is T1, B52 (SRp55) full length. The experiment in a line: EMSA; 1:1; 50 mM Tris pH 7.6, 200 mM KOAc, 5 mM MgCl2, excess tRNA, gel 4 C. Particulars: tags: baculovirus/Sf9 expressed, SR protein purification; label: 32P-UTP; hairpin. Here is the method: as §1
(§7) When individual RNA's transcribed from cloned sequences were tested by filter binding assay the BBS RNA's were all able to bind B52 to generate signals that were 20 times the background produced by RNA's from the unselected pools. […] After cloning the selected sequences, RNA transcripts without most of the 3′ constant region were made by cutting the template with the restriction endonuclease Scal. […] The band shift assay was first performed with these sequences. Two sequences randomly picked from the original unselected pool were used as controls. Increasing amounts of B52 were added to ³²P-labeled RNA probes, which contain the 5′ constant region, in the presence of a large excess of tRNA. […]

Data set [6] addresses T1, B52 (SRp55) full length. The experiment in a line: EMSA; consensus trapped in duplex loses binding. Particulars: tags: baculovirus/Sf9 expressed, SR protein purification; label: 32P-UTP; hairpin, BBS consensus paired with its antisense via UUCG tetraloop. Here is the method: as §1, §2
Data set [7] has as its target T1, B52 (SRp55) full length. The data set can be described thus: filter; signal 20x background of unselected pool. Particulars: tags: baculovirus/Sf9 expressed, SR protein purification; hairpin. Here is the method:
as §1, §7

For data set [8], the target named is T1, B52 (SRp55) full length. The data set can be described thus: EMSA; fully active. Particulars: tags: baculovirus/Sf9 expressed, SR protein purification; label: 32P-UTP; hairpin. The method, then: as §1, §2
The target of data set [9] is T1, B52 (SRp55) full length. The experiment in a line: EMSA; binding not compromised. Particulars: tags: baculovirus/Sf9 expressed, SR protein purification; label: 32P-UTP; hairpin. The method, then: as §1, §2
Data set [10] addresses T1, B52 (SRp55) full length. The data set can be described thus: EMSA; binds as well as BBS-I. As to conditions: tags: baculovirus/Sf9 expressed, SR protein purification; label: 32P-UTP; hairpin with internal loop. The method, then: as §1, §2

In general, Kd refers to a measure of binding affinity in units of concentration. Low readings indicate tighter binding, high ones weaker binding.

T1 sequence (P26686 other isoform, or with tags, fused parts or gaps): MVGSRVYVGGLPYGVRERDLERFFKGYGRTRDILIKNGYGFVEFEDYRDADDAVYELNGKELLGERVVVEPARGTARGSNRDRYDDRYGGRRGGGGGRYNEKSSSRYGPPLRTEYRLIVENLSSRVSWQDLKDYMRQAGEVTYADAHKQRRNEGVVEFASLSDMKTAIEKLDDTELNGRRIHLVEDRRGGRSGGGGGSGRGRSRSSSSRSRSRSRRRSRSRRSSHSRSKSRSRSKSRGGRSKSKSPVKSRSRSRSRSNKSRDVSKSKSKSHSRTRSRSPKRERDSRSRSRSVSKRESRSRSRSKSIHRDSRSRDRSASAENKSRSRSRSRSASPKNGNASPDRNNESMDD
Sequence of B52 RRM1 (R1) (P26686 4-74, one chain of several): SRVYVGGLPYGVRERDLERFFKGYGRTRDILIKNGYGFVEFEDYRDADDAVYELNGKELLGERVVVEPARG
Sequence of B52 RRM1+RRM2 (R12) (P26686 other isoform, or with tags, fused parts or gaps): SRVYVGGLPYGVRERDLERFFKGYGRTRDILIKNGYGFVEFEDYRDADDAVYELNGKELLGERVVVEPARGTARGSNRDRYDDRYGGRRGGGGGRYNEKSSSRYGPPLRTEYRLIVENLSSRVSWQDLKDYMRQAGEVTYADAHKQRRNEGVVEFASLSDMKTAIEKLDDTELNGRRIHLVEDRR
Sequence of B52 SR domain (S) (P26686 other isoform, or with tags, fused parts or gaps): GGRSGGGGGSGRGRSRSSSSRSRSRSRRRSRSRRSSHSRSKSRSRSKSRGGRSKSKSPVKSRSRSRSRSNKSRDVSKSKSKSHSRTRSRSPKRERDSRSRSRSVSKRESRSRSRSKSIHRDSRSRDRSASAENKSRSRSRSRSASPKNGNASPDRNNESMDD
Sequence of B52 RRM2+SR domain (R2S) (P26686 other isoform, or with tags, fused parts or gaps): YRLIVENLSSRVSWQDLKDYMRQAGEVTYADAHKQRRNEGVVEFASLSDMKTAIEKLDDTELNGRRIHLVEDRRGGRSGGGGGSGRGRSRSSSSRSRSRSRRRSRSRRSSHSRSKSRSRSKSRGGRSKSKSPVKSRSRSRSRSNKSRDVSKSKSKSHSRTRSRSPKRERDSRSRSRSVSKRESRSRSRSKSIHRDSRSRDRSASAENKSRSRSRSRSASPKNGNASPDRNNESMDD

B1: AntiBBS-II (ssRNA)
RNA: GGACUGUCGCCUGGUUGAUCGU
For the molecule B1, the binding result with B52 (SRp55) full length [1] is “no binding”.

B2: BBS #8 (ssRNA)
RNA: GGGAGAAUUCAACUGCCAUCUAGGCUGGUCAACCAGGCGACCGCCACCCGCGCGCGCAAUACCUAGUACUACAAGCUUCUGGACUCGGU
As for B2, the binding result with B52 RRM1+RRM2 (R12) was “binds”; with B52 full length (F), “binds”; with B52 RRM2+SR domain (R2S), “no binding”; in the data set with B52 SR domain (S), “no binding”; with B52 RRM1 (R1) it was “no binding”; in the data set with HSF (heat shock factor), “no binding”. The binding result in the data set with RBP1 (SR protein) is given as “no binding”.

B3: bbs-II/3'Stem (ssRNA)
RNA: GGACGGUCAACCAGGCGACCGU
B3: the binding result with B52 (SRp55) full length [2] is reported as “binds”.

B4: BBS-I/Long (ssRNA)
RNA: GGCUGGUCAACCAGGCGACCGCCACCCGCGCGC
For the molecule B4, in the data set with B52 (SRp55) full length [3], the binding signal was 1 fold of BBS #8.

B5: mature pentavalent BBS(5) aptamer (ssRNA)
RNA: GCGGCCGCCUCCGCGGCCGCCUGAUGAGUCCGUGAGGACGAAACAUGCAUGUCGAGAGUACGAUCAACCAGGCGACAGUACUCUCGACGAUCAACCAGGCGACAGUGGCUGGUCAACCAGGCGACCGCCACUGCAGGGUAACGGUCAACCAGGCGACCGUUACCCGGACGGUCAACCAGGCGACCGUUGACUUCGGUCAGUCGAGAUGCAUGUC
Take B5: the binding signal in the data set with B52 (SRp55) full length [4] is 10 fold more avid than BBS #14.

B6: BBS #14 ScaI-trimmed (ssRNA)
RNA: GGGAGAAUUCAACUGCCAUCUAGGCAGGGUAACGAUCAACCUGGCGACAGCUGCCCUGCCGUCCAAGU
Consider B6, for which the Kd with B52 (SRp55) full length [5] was about 50 nM.

B7: UUCG/BBS (ssRNA)
RNA: GGUCGCCUGGUUGAUCUUCGGAUCAACCAGGCGACA
Regarding B7, in the data set with B52 (SRp55) full length [6], the binding result was “no binding”.

B8: BBS #23 (ssRNA)
RNA: GGGAGAAUUCAACUGCCAUCUAGGCCCAACUGCUAAGAAGCAUCCUGUACGAUCAACCCGGCGACAGUACUACAAGCUUCUGGACUCGGU
As to B8, the binding result in the data set with B52 (SRp55) full length [7] was “binds”.

B9: BBS-I (ssRNA)
RNA: GGCUGGUCAACCAGGCGACCGCC
For B9, the binding signal with B52 (SRp55) full length [8] was 1 fold of BBS #8.

B10: AntiBBS-I (ssRNA)
RNA: GGCGGUCGCCUGGUUGACCAGCC
B10: the binding result with B52 (SRp55) full length [1] (hairpin) is given as “no binding”.

B11: BBS-I/NoBulge (ssRNA)
RNA: GGCGGUCAACCAGGCGACCGCC
On to B11, for which the binding result with B52 (SRp55) full length [9] is given as “binds”.

B12: BBS-II (ssRNA)
RNA: GGGUACGAUCAACCAGGCGACAGUACCC
With B12, in the data set with B52 (SRp55) full length [10], the binding result is “binds”.

B13: BBS #8 ScaI-trimmed (ssRNA)
RNA: GGGAGAAUUCAACUGCCAUCUAGGCUGGUCAACCAGGCGACCGCCACCCGCGCGCGCAAUACCUAGU
In turn, B13 displayed a Kd in the data set with B52 (SRp55) full length [5] of about 20 nM.
